Target: SARS-CoV-2 spike protein, wild type, on live virus (SARS-CoV-2-mNG / USA-WA1/2020) (SARS-CoV-2) (UniProt P0DTC2)
Test: cell-based or functional assay

IgG antibody carrying the VH and VL regions of Sotrovimab (S309)
Neutralization EC50: 0.17 µg/mL
